From the supplement of paper PMC12042874
± gives the uncertainty stated by the source.

Assay: amyloid nucleation score (Sup35N fusion, yeast selection) (log enrichment); library NNK3; higher = more nucleation; inactive = no reads after selection
How it was run: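 DiMSum was used to calculate nucleation scores as log enrichment of output over input reads, centred on the mode score of non-aggregating sequences. Sequences with fewer than 100 input reads were not scored. Input and output came from Illumina sequencing of plasmid inserts in psi-negative yeast expressing peptides of 20 random codons fused to Sup35N, induced 24 hours with 100 μM copper sulfate and then grown 7 days at 30°C on medium lacking adenine and uracil.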

Substance | amyloid nucleation score
LHVSTRFA | inactive
LIARCKRAIAGGY | inactive
LIASGASIVFSRTESVRCNT | inactive
LICYLYAKMC | inactive
LIGNTSGMILHSTITDEAWL | inactive
LIGSGV | inactive
LIIGCGIFSLNS | 1.94 ± 0.068
LIISCMQFLVYKKCGFSMRH | inactive
LILFPRKRHTGSM | inactive
LILGTNYQIY | 1.27 ± 0.17
LIPIW | inactive
LISMVYLNVRLCQ | inactive
LISTNKRHTAWRYCRGIPLE | inactive
LIYMLCYFRLLPTCGQVINR | inactive
LKDWVRYGVEIQAVSMGILV | 0.221 ± 0.16
LKEQSVQMAWP | inactive
LKFLLRNILVRYYMDVGPVS | inactive
LKGTCFLIPYLVTSGSSLVS | inactive
LKLWYPLSFIDVRAPRA | inactive
LKNFIKWRGILPFFGTDFWM | inactive
LKNFKSSAHLMQMIVLNFAY | inactive
LKNSL | inactive

Substance | amyloid nucleation score
LKPELIGMCGEGGLIAFRSQ | inactive
LKSST | inactive
LKYFQVRT | inactive
LLAGYPLWKPKTCQYMKPWL | 0.125 ± 0.24
LLAMRRIDWCSTPVTLILCR | inactive
LLCLVAKRYGMGRLF | inactive
LLDLDCYASLVSTTLEHMSG | inactive
LLDVYLD | inactive
LLFEMWTWSTVSRRAGDVLS | inactive
LLFRFMTGVVRLPRDNTYRK | inactive
LLGCAYTGSTFHGNVGSFVL | inactive
LLIDCYVDYSC | 0.105 ± 0.24
LLIDNVCSNIARVMHKVWLW | inactive
LLIKDYMHDHLGIILYTEEC | inactive
LLLIGINVKMFWSFRVWLCN | inactive
LLLSLGVLCYP | inactive
LLLWGTHHSMIYYDGCLIFI | inactive
LLLYWRRTMVALRCTYFGLT | inactive
LLNVTHSVAMTRTHGGVTYW | 0.776 ± 0.17
LLPKVLLP | inactive
LLSHYFHGMCMTHISGIFVM | inactive
LLSLAYVMRYI | 1.38 ± 0.068

Substance | amyloid nucleation score
LLSREERTAVLLCTETQ | inactive
LLTHRFVAGFHRKAHSCCDS | inactive
LLVCDREVAFAVACSFPCKR | inactive
LLVMWWYRLTGPDGVSNWR | inactive
LLWCGFQDCEMKC | inactive
LLWYKLSELR | inactive
LLYQFSELQMASWNNKKKEL | inactive
LLYSLWCEMMYPSKGARM | inactive
LLYVKFIVPYTTM | inactive
LMASWTVRTYHGFSISENRN | 0.312 ± 0.26
LMDDTVQMYR | inactive
LMDPNGLVQGLFYMELLT | inactive
LMFNGILNQCSVMYLNRIYK | 2.97 ± 0.081
LMFRTLFK | 0.062 ± 0.62
LMKMHQCDSKVWNEMGDASN | inactive
LMRSREEGAPSDRRSQAYED | inactive
LMVMGVSSCLTFAIDILRNM | 1.13 ± 0.16
LMYTRGFLWGAWINACMSRG | 1.2 ± 0.15
LNAEIL | inactive
LNATKSDCHSLLI | inactive
LNCMQVYFICVTWFAC | inactive
LNCPSYPNVGPWNLEVTAFQ | inactive
